T1: EV-A71 VP1 (capsid protein) (Enterovirus A71) (UniProt Q66478)
T1 sequence: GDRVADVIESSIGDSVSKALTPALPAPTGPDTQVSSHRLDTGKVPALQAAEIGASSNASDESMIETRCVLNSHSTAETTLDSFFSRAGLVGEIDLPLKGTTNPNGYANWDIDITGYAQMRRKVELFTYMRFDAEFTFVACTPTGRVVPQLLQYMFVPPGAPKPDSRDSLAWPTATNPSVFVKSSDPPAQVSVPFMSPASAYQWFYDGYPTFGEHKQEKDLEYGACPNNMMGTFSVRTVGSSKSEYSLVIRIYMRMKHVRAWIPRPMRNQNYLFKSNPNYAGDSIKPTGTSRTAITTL


Key:
[1] = target: T1, EV-A71 VP1 (capsid protein) (Enterovirus A71); assay: ELISA; conditions: 5 mM Mg2+; VP1 coated at 200 ng/mL; unit given as nm; given with U (uracil) mixed with t in a DNA aptamer; U may stand for T; 1x PBS, 5 mM MgCl2, 1% BSA, 1 ug/mL tRNA, 0.02% Tween-20, room temperature, 1 h; pH not stated
[2] = target: Bovine serum albumin (Bos taurus (Bovine), UniProt P02769 25-607); assay: ELONA; PBS, 5 mM MgCl2, 1% BSA, 1 ug/mL tRNA, 0.02% Tween-20, RT; VP1 coated on plate; conditions: label: 5'-biotin
Chain of Bovine serum albumin (P02769 25-607): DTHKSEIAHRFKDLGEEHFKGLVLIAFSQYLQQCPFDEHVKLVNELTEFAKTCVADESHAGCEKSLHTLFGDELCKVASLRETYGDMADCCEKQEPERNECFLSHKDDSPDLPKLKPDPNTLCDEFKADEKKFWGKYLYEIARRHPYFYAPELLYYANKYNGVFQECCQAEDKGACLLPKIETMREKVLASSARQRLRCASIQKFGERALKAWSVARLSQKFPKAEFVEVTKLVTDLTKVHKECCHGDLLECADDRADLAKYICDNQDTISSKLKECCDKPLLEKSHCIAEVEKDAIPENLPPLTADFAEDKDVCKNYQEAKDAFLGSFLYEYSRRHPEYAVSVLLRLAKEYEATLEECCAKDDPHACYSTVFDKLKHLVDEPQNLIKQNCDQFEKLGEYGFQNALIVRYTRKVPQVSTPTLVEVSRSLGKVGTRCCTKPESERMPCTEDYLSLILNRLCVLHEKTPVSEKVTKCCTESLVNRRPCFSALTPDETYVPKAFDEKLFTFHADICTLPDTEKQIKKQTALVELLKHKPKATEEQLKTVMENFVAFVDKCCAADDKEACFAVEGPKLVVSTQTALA

Row | Molecule | Kd [1] | binding result [2]
1 | ACTAAGCCACCGTGTCCACCCUCGCCGAGUUUUCGUAACUAUAUCUUGUGGUUCCUAUUGCUGCGUCACUCUGGAU [V11] | 4.28 nM | 
2 | ACTAAGCCACCGTGTCCAUCAAUGGUGUGUGCAUUCGUGUGUUGUGUUGUUUGUUGUUUGCUGCGUCACUCUGGAU [V7] | 32.7 nM | 
3 | ACTAAGCCACCGTGTCCAUUCGAUUCGAUCUAAUUUGGUUCUUUCCUCACUUUUCAGUGCUGCGUCACUCUGGAU [V21] | 4.55 nM | 
4 | V11 (ssDNA, dU at positions 22,30,31,32,33,36,40,42,44,46,47,49,52,53,56,58,59,62,66,70,72,76 (printed 'U, uracil'; every T 3' of the 18-nt primer; whether the dU carries a C5 group is not stated)) DNA: ACTAAGCCACCGTGTCCACCCTCGCCGAGTTTTCGTAACTATATCTTGTGGTTCCTATTGCTGCGTCACTCTGGAT |  | no binding

Source: article PMC8359077, “DNA aptamer against EV-A71 VP1 protein: selection and application”
